Measurements from PMC9722607 (Structure (London, England : 1993), 2022).
Where a chain is given by its changes, count along the chain named. In names and notes the source's numbering stands.

B1: 6x-His-tagged PqsE (wild type) (enzyme)
chain: MLRLSAPGQLDDDLCLLGDVQVPVFLLRLGEASWALVEGGISRDAELVWADLCRWVADPSQVHYWLITHKHYDHCGLLPYLCPRLPNVQVLASERTCQAWKSESAVRVVERLNRQLLRAEQRLPEACAWDALPVRAVADGEWLELGPRHRLQVIEAHGHSDDHVVFYDVRRRRLFCGDALGEFDEAEGVWRPLVFDDMEAYLESLERLQRLPTLLQLIPGHGGLLRGRLAADGAESAYTECLRLCRRLLWRQSMGESLDELSEELHRAWGGQSVDFLPGELHLGSMRRMLEILSRQALPLD
B2: RhlR (wild type, untagged, bound to mBTL) (natural protein)
chain: MRNDGGFLLWWDGLRSEMQPIHDSQGVFAVLEKEVRRLGFDYYAYGVRHTIPFTRPKTEVHGTYPKAWLERYQMQNYGAVDPAILNGLRSSEMVVWSDSLFDQSRMLWNEARDWGLCVGATLPIRAPNNLLSVLSVARDQQNISSFEREEIRLRLRCMIELLTQKLTDLEHPMLMSNPVCLSHREREILQWTADGKSSGEIAIILSISESTVNFHHKNIQKKFDAPNKTLAAAYAAALGLI
B3: RhlR F53A (natural protein)
chain: B2 chain with F53A
B4: RhlR C157S (natural protein)
chain: B2 chain with C157S

Tests used:
[1] = target: the molecule itself; assay: cryo-EM structure
[2] = target: B1; assay: pull-down

| Binder | stoichiometry N [1] | efficacy of binding relative to WT RhlR [2] [%] |
| --- | --- | --- |
| B1 | 2 | – |
| B2 | 2 | – |
| B3 | – | 50 |
| B4 | – | 70 |
